In assay [1] the target is IGF-1Rzip (leucine-zipper-stabilized human IGF-1R ectodomain) (human | Saccharomyces cerevisiae). Briefly: cryo-EM structure; IGF-1Rzip mixed with IGF-II at a molar ratio of 1 to 1.5 (receptor homodimer to ligand) in TBSA (24.8 mM Tris-HCl pH 8.0, 137 mM NaCl, 2.7 mM KCl, 0.02% azide); single-particle reconstruction; open-leg and closed-leg 3D classes.
Assay [2] has the same target. The assay can be described thus: europium time-resolved fluorescence competition binding assay (immunocapture); IGF-1Rzip (0.5 μg per well) captured on a plate coated with 24-31 anti-human IGF-1R antibody; Eu-IGF-I or Eu-IGF-II (~100,000 counts) with increasing concentrations of unlabelled IGF-I or IGF-II; 16 h at 4°C; one-site fit.
Assay [3] addresses holoIGF-1R (IGF-1R holoreceptor solubilized from P6 cells) (human) (UniProt P08069). The assay can be described thus: europium time-resolved fluorescence competition binding assay (immunocapture); IGF-1R solubilized from P6 cells (100 μl lysate per well) captured on a plate coated with 24-31 anti-human IGF-1R antibody; Eu-IGF-I or Eu-IGF-II (~100,000 counts) with increasing concentrations of unlabelled IGF-I or IGF-II; 16 h at 4°C; one-site fit.

For three substances, stoichiometry N (IGF-II per receptor homodimer) and IC50 results are on record in article PMC7343240.

One may read the IC50 as the midpoint of a concentration-inhibition curve.

Take “"Receptor grade" IGF-II (GroPep) (ligand)”: the stoichiometry N (IGF-II per receptor homodimer) in assay [1] stood at 1.
“human insulin-like growth factor I (IGF-I) (from UniProt P05019 49-118) (ligand)” displayed an IC50 in assay [2] of 0.39 nM.
With “human insulin-like growth factor II (IGF-II), of Francis et al., 1993 (ligand)”, the concentration for half-maximal inhibition (IC50) in assay [3] stood at 0.85 nM; in assay [2] it was 1.24 nM.
